System: (15)KDPGA(10F) and PGA(10) peptides
Experiment: M. jannaschii Adriase peptide ligation rates with fluorescent peptides (SDS-PAGE/UV)
Type: biochemical
Method: To test this assumption, the Adriase reaction was performed with (X1)KDPGA(X2) peptides bearing a C-terminal fluorophore (SEQ ID NOs: 370-371 and 418; see also Table 6) and unmodified PGA(X3) synthetic peptides (SEQ ID NOs: 373-375; see Table 7) as model substrates. The recombination reaction is expected to result in the formation of a (X1)KDPGA(X3) fusion peptide, releasing the respective C-terminal peptides PGA(X2)(SEQ ID NOs: 414) with the C-terminal fluorescent label. The latter can be visualized in order to track the progress of the reaction.
For this purpose, ligations were performed and visualized as described above, except for the use of just 6 nM Adriase and the increasing concentrations of (15)KDPGA(10F) (SEQ ID NO: 418) and PGA(10)(SEQ ID NO: 374) peptides (2.5/5/10/20/40/80/160 µM of each peptide of the peptide pairs). The band intensity of the respectively fluorescently labeled PGA(10F)-peptide (see SEQ ID NO: 414), which is released by the ligation reaction was quantified using ImageJ v1.50i and subtracted from background signal in control reactions without PGA(10) peptide.
To determine how the reaction is influenced by recognition motif characteristics, ligation rates for other substrates were determined in the same manner, except for the use of 20 μM of the indicated substrates (see also Tables 6 and 7) and varying concentrations of Adriase (6/30/150/750 nM). […] In combination with the above experiments (FIGS. 9A and B), they provide the means to design substrates for efficient Adriase-mediated ligations.

B1: M. jannaschii Adriase: Methanocaldococcus jannaschii Adriase (MJ_0548) with C-terminal His6-tag (protein)
chain: SLIICYYGKNGAVIGGDRRQIFFRGSEENRKILEEKLYSGEIKSEEELYKLAEKLNIKIIIEDDREKVRKISDSVVCGEVRSLGIDAKRRRVYATKGKCAIVDILNDTVTNQTIKEGFGIVVLGNRFLKKKAEEELKRTAKLFPMMPIQQIEDAIKEIFEKLKWHPTVSKEYDIYSVNKYEKNFEEVIKKDIESLFKYREQLRKQLIDFGKVMSIVNKIVKNGEIGVIKDGKLHLYDDYIAIDKIDPNPKVFKVVDVEGNFKDGDIVVIENGDMKIKGTNEKVTTKYIIIHKGSHHHHHH
modifications: C-terminal His6-tag; M. jannaschii Adriase with C-terminal His-tag
6 nM Adriase, 85° C., equimolar substrates 2.5-160 μM, Michaelis-Menten model, single experiment
  maximum rate: ~ 1.4 ligations per enzyme and second
20 μM substrates, 6/30/150/750 nM Adriase, X1≥5 and X2=X3≥10
  ligation of (X1)KDPGA(X2) and PGA(X3) peptides: efficiently ligates
Each substrate, 6 nM Adriase, 85° C., Michaelis-Menten model
  substrate concentration at half maximal reaction speed: 23 µM

Source: patent publication US20260275319A1, “ARCHAEAL PEPTIDE RECOMBINASE – A NOVEL PEPTIDE LIGATING ENZYME” (MAX-PLANCK-GESELLSCHAFT ZUR FÖRDERUNG DER WISSENSCHAFTEN …, priority 2019, published 2026)
